According to patent publication US20250340641A1 (KYMAB, published 2025):

T1: human ICOS expressed on the surface of cells (human, UniProt Q9Y6W8 21-199)
T1 construct: also called hICOS; Human ICOS CHO
T1 sequence: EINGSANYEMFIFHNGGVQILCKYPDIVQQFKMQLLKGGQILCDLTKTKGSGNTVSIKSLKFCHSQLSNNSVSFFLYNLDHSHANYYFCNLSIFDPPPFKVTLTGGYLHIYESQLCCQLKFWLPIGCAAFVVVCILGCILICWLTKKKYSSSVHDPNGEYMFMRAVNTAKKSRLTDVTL

T2: mouse ICOS expressed on the surface of CHO-S cells (mouse, UniProt Q9WVS0 21-200)
T2 construct: whole, on cells; also called mICOS; Mouse ICOS CHO
T2 sequence (looked up): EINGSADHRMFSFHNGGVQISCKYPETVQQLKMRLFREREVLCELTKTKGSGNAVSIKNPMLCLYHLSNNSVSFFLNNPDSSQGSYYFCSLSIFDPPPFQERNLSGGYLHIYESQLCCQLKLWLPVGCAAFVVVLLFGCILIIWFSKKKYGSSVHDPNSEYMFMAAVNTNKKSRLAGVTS


How the values were obtained:
[1] = molecular target: T1, human ICOS expressed on the surface of …; assay: flow cytometry on CHO-S cells, purified IgG1
[2] = molecular target: T2, mouse ICOS expressed on the surface of …; assay: flow cytometry on CHO-S cells, purified IgG1

fold above the average of geomean of the negative control [1]	fold above the average of geomean of the negative control [2]	Binder
> 10 fold	> 10 fold	CL-74570 (antibody, V domains shown) VH: EVQLVESGGGVIRPGGSLRLSCAASGFTFDDYGMSWVRQAPGKGLEWVSGINWIGDNTDYADSVKGRFTISRDNAKNSLYLQMNSLRAEDTALYYCARDYFGSGSYYNVPF VL: not shown
> 10 fold	> 10 fold	CL-61091 (antibody, V domains shown) VH: QVQLMQSGTEVKKPGASVKVSCKTSGYTFTTYGITWVRQAPGQGLEWMGWISAYSGDTDYAQKFQGRVTVTTDTSTNTAYMELRSLKSDDTAVYYCARSSGWPHHYGMDVWGQGTTVTVSS VL: DIVMTQSPLSLPVTPGEPASISCRSSQSLLHSNGFNYFDWYLQKPGQSPQLLIFLVSNRASGVPDRFSGSGSGTDFTLKISRVEAEDVGIYYCMQALQTPLTFGGGTKVEIK
